One test addresses T1, CD73-ND-E143A (human, UniProt P21589 27-317).
T1 construct: Alanine mutant of CD73-ND
T1 sequence: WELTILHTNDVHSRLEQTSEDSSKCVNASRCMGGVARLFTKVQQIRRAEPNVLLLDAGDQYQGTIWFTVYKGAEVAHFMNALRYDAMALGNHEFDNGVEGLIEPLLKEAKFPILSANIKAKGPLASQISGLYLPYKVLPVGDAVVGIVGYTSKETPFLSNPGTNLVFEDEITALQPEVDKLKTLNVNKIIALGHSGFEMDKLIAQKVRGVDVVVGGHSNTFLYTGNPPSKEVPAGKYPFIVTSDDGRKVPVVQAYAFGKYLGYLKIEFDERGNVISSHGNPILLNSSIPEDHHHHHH
The experiment in a line: ELISA; decline multiple of EC50 against CD73-ND. Here is the method:
(§1) The ELISA plates were coated with SA protein diluted to 1.5 μg/mL in coating buffer (50 mM carbonate coating buffer, pH 9.6) and incubated overnight at 4° C. The supernatant was discarded, and the plates were washed three times with PBST. Then, 5% skimmed milk powder prepared with PBS was added for blocking and the plates were incubated for 2 h at 37° C. After washing the plates once with PBST, CD73-biotin protein (prepared by biotinylating CD73-His protein according to the EZ-Link NHS-Biotin Reagent instructions) was diluted to 0.5 μg/mL and added at 100 μL/well for incubation at room temperature for 1 h. The plates were washed three times with PBST, and the prepared murine-derived monoclonal antibodies against human CD73 were serially diluted with 1% BSA buffer prepared with PBST and added to the ELISA plates at 100 μl/well. The plates were incubated at 37° C. for 1 h. After washing the plates three times with PBST, HRP-labeled goat anti-mouse IgG secondary antibody was added and the plates were incubated for 30 min at 37° C. After washing the plates three times with PBST, the residual droplets were patted dry on absorbent paper as much as possible. Then, 100 μl of TMB color developing solution was added to each well, and the plates were incubated in the dark at room temperature for 5 min for color development. Subsequently, 50 μl of 2M H₂SO₄ stop solution was added to each well to terminate the substrate reaction. The OD values were read at 450 nm using a multimode microplate reader to analyze the binding ability of the tested antibodies to the target antigen human CD73-His.
(§2) Referring to the experimental method in Example 3, the affinity of 48A11-HuV33 for various mutant proteins of CD73-ND was determined. The SA protein was diluted to 1 μg/mL for coating the ELISA plates, and the biotinylated CD73 protein (CD73-biotin) was used at a concentration of 0.1 μg/mL.
Background: In an ELISA, binding on a coated surface is turned into a signal by an enzyme label.

The target of another test is T2, CD73-ND-V144A (human, UniProt P21589 27-317).
T2 construct: Alanine mutant of CD73-ND
T2 sequence: T1 sequence with A143E, V144A
The experiment in a line: ELISA; decline multiple of EC50 against CD73-ND. Here is the method: as §1, §2

The target in another test is T3, CD73-ND-L181A (human, UniProt P21589 27-317).
T3 construct: Alanine mutant of CD73-ND
T3 sequence: T1 sequence with A143E, L181A
Kind of test: ELISA; decline multiple of EC50 against CD73-ND. The method, then: as §1, §2

The target of another test is T4, CD73-ND-K182A (human, UniProt P21589 27-317).
T4 construct: Alanine mutant of CD73-ND
T4 sequence: T1 sequence with A143E, K182A
The experiment in a line: ELISA; decline multiple of EC50 against CD73-ND. Here is the method: as §1, §2

Another test deals with T5, human CD73-His protein (human, UniProt P21589 27-549).
T5 construct: Expressed in HEK-293F with a signal peptide that is not specified; In the ELISAs it was biotinylated with EZ-Link NHS-Biotin (CD73-biotin) and captured on streptavidin; in SPR and the enzyme assay it was used as CD73-His; also called CD73-his antigen; CD73-biotin
T5 sequence: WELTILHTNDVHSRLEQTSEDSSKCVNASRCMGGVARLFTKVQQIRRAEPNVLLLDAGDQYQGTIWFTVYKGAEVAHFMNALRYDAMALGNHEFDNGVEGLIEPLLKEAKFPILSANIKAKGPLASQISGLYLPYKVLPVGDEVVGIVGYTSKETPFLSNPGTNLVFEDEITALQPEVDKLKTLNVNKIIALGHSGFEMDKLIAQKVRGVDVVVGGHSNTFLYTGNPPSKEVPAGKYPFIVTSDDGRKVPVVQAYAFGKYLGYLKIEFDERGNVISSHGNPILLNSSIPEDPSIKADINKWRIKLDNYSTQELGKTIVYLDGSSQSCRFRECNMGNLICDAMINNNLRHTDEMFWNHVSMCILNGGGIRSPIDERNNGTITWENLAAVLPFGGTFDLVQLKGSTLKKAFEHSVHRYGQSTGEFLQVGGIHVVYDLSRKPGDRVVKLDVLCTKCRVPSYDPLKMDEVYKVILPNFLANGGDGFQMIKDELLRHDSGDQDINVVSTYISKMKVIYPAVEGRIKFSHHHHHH
Kind of test: ELISA as in Example 3, antigen CD73-his, antibody titrated, absorbance 450 nm.

Numbering of substitutions follows the chain as printed.

B1: 48A11-HuV33 (antibody, human IgG4, V domains shown)
VH: QVQLVQSGAEVKKPGASVKVSCKASGYTFTSYWMHWVRQAPGQGLEWIGEINPSIGRTNYNEKFKSRVTLTRDTSTSTAYMELSSLRSEDTAVYYCARRVYGTMDYWGQGTLVTVSS
VL: DIQMTQSPSSLSASVGDRVTITCKASQDINSYLSWFQQKPGKSPKLLIYRANIWVDGVPSRFSGSGSGQDYTFTISSLQPEDIATYYCLQYDELYTFGQGTKVEIK
notes: Humanized
For B1, the “Ratio(EC50)” value was found to be 1.4 fold with CD73-ND-E143A, 2.5 fold with CD73-ND-V144A, 1.9 fold in the test with CD73-ND-L181A and 1 fold in the test with CD73-ND-K182A.

B2: 56B10-HuV31 (antibody, human IgG4, V domains shown)
VH: QVQLQQSGAEVKKPGASVKVSCKASGYTFTRYYIYWVRQRPGQGLEWIGWIYPGNFNTKYNEKFKGRATLTADTSASTAYMELSSLTSEDTAVYYCARDVYDYAGFAYWGQGTLVTVSS
VL: DIQLTQSPSFLSASVGDRVTITCKASQGVATAVAWYQQKPGQSPKLLIYWASTRHTGVPDRFSGSGSGTEFTLTISSLQPEDFATYYCQQYSSYPWTFGQGTKVEIK
notes: Humanized
By EC50 (read off the curve) is commonly meant the concentration needed to bring the measured effect to its halfway point. Low readings indicate an effect from little substance, high ones a need for much substance. As for B2, the “EC50 (read off the curve)” value with human CD73-His protein is approximately 70 pM.

These data come from patent US20250066499A1 (SUNSHINE GUOJIAN PHARMACEUTICAL SHANGHAI, published 2025).
